Assay results reported in publication PMC10683481.

Biological target: GST-PLIED-M1 (E. coli) (UniProt P0ABQ4)

- acetylation yield of MDM2 K51 (LC-MS/MS) with MDM2 (1.4 μM), PLIED-M1 (4 μM), TMP-BAHA 1 (10 μM) and acetyl donor 2 (100 μM), 37 °C, 5 h: 70%
Substance: Recombinant human MDM2 (17-125) (from UniProt Q00987 17-125) (domain or fragment)
